Experimental data published in patent US12599645B2, “Antibodies which bind to lysophosphatidic acid receptor 1 (LPAR1)” (DJS ANTIBODIES LTD, priority 2021, dated 2026).
Changes are numbered by the printed parent chain. Names may count otherwise.

B1: Antibody 12: LCDR2 mutation T56D; VH SEQ ID NO: 36, VL SEQ ID NO: 38 (antibody, V domains shown)
VH: QVQLVQSGSELKKPGASVKVSCKASGYTFTSSGISWVRQAPGQGLEWMGEILPRSGYTNYNQGFTGRFVFSADKSVSTAYLQISSLKAEDTAVYYCARDFKGGRYAMDYWGQGTTVTVSS
VL: SIQMTQSPSSLSASVGDRVTITCQASQSVRYNVAWYQQKPGKAPKLLIYYASNRYDGVPSRFSGSGSGTDFTFTISSLQPEDIATYFCQHHYSSPLTFGGGTKLEIK
B2: Antibody 17: Optimised antibody; VH SEQ ID NO: 102, VL SEQ ID NO: 99 (antibody, V domains shown)
VH: B1 VH with L52Q, F100K, K101G, G102P, G103A, A106T
VL: B1 VL with D56E

Columns and labels:
LPAR1 [1] = target: T1, LPAR1 (Homo sapiens, UniProt Q92633); assay: Transient-transfection CIFAT, fixed/permeabilised cells; type: binding; set-up: HA; expressed in transfected cells; host or cells: CHO-K1 (transient, PEI); conditions: 5 μg/mL
LPAR1 [2] = target: T1, LPAR1; assay: BRET assay (G protein activation and βArrestin 2 biosensors); type: cell-based; set-up: expressed in transfected cells; host or cells: HEK293 (transient, PEI); conditions: G13 biosensor
Description: Using polyethylenimine (PEI) transfection agent at a 3:1 ratio, HEK293 cells were co-transfected in suspension with hLPAR1 and one of the following biosensors: G protein activation sensors (Gαi2, Gα13, and Gαq) and the βArrestin 2-PM recruitment biosensor (+GRK2). Cells were directly seeded in 96-well plates immediately following transfection at a density of 35,000 cells/well. 48 hours post-transfection, BRET experiments were performed in both agonist and allosteric/antagonist mode. Using a plate washer, culture medium was aspirated and replaced with 30 μl of Hank's Balanced Salt Solution buffer (HBSS). Plates were equilibrated at room temperature for 60 minutes. For agonist testing, serial dilutions of the antibodies were performed in PBS and then added to each well. Antibodies were assayed at 12 concentrations in technical duplicates. Small molecules were added to each relevant well. Small molecules were assayed at 22 concentrations with each biosensor. Cells were then incubated with the antibodies or small molecules at room temperature for 60 or 10 minutes, respectively. 10 μl of 10 μM e-Coelenterazine Prolume Purple (Nanolight) was then added to each well. Cells were incubated at room temperature for an additional 10 minutes. BRET readings were then collected with a 0.4 sec integration time on a plate reader (filters: 400 nm/70 nm, 515 nm/20 nm). For allosteric testing (after agonist testing), an EC75 of the endogenous ligand (oleoyl-LPA) was added to each well already containing antibody or small molecule. Cells were incubated at room temperature for an additional 10 minutes. BRET readings were then collected with a 0.4 sec integration time on a plate reader (filters: 400 nm/70 nm, 515 nm/20 nm). BRET signals were determined by calculating the ratio of light emitted by GFP-acceptor (515 nm) over light emitted by luciferase-donor (400 nm). All BRET ratios were standardized with pre-established BRET values for positive and negative controls. The standardized BRET ratio is referred to as universal BRET (uBRET). Resulting dose-response curves were fitted using the three- or four-parameter logistic non-linear regression model in GraphPad Prism 9.
The inhibition characteristics of Antibody 12 were investigated by Bioluminescence Resonance Energy Transfer (BRET, method 1.15) and compared to a small molecule LPAR1 inhibitor of the prior art (BMS-986020), see FIG. 13. The upper lines are values recorded with LPA present and the lower lines are values recorded with LPA not present. […] This can only happen if the ligand (LPA) is also interacting with the receptor at the same time to enable some signalling. […]

Irrelevant GPCR = assay: Transient-transfection CIFAT, irrelevant GPCR control (fixed and live cells); type: binding; conditions: cells expressing irrelevant GPCR
Description: (§1) Anti-LPAR1 antibodies of the invention were tested alongside commercially available anti-LPAR1 antibodies in the transient-transfection CIFAT assay for live cells (method 1.11) and in the transient-transfection CIFAT assay for fixed cells (method 1.11).
The results are shown in FIGS. 11 and 12, wherein the scale bar represents 100 μm.

LPAR1 [3] = target: T1, LPAR1; assay: LPAR1 binding affinity during discovery and affinity maturation, method not stated; set-up: expressed in transfected cells; conditions: stated in words
[4] = set-up: species or system Sprague Dawley rats; conditions: rat, in vivo, iv, 3 mg/kg
Description: The rat pharmacokinetics study was carried out in male Sprague Dawley rats (275-325 g). Rats received an IV slow bolus (3 mg/kg) of test antibody. Blood samples were taken at the following time-points: pre-dose, 2 min, 1 hour, 3 hours, 6 hours, 24 hours, 48 hours, 96 hours, 7 days, 14 days and 21 days after dosing. For each animal and for each blood sampling, 200 μL venous blood was obtained from the sublingual vein under isoflurane anaesthesia in K2EDTA vials. The blood samples were gently mixed, placed immediately on crushed ice and centrifuged within 30 min of sampling at approximately 1500×g for approximately 10 min at approximately 4° C. For each blood sample, the resulting plasma was separated into 2 aliquots of 30 μL and transferred, using disposable plastic material, into polypropylene tubes with conical bottom and stored at −80° C. until analysis by capture ELISA. Plates were coated overnight with 1 μg/mL capture IgG before washing and blocking with 3% (w/v) milk the next morning for 2 hours. […] Absorbance was measured on a plate reader at 450 nm. Antibody concentrations were calculated using interpolation off a standard curve constructed for each individual test IgG in Prism 5 (GraphPad Software, CA, USA). Interpolated data was analysed using Phoenix WinNonlin® version 8.1 (Certara USA, Inc., Princeton, NJ) to extract relevant PK parameters. […]

LPAR1 [5] = target: T1, LPAR1; assay: Transient-transfection CIFAT, live cells; type: binding; set-up: HA; expressed in transfected cells; host or cells: CHO-K1 (transient, PEI); conditions: 5 μg/mL or 20 μg/mL
Description: CHO-K1 cells are seeded in multi well plates at 20,000 cells per 200 μL full growth medium and incubated for 24 hours at 37° C. In a sterile tube, 0.0309 uL/well PEI is diluted into 10 uL/well transfection medium (DMEM supplemented with 2 mM L-glutamine and Penicillin-Streptomycin). The diluted PEI is added to 100 ng/well DNA, before mixing immediately and incubating the mixture for 10 minutes at room temperature. 200 μL/well full growth medium is added to the PEI-DNA mixture, then medium in wells is taken off and 200 ul full growth medium/PEI/DNA mixture is added in the wells of the adherent cell plate. The plate is incubated for 24 hours at 37° C. The medium is discarded and replaced with 200 μL full growth medium. The plate is incubated for 24 hours at 37° C. Medium is removed from the wells and the cells incubated with primary antibody at varying concentrations for 75 minutes at 37° C. After washing and cell fixation with 4% PFA, the binding of the antibodies is detected using a goat anti-human detection antibody, incubated for 1 hour at room temperature. Fluorescence at 488 nm is measured.
CHO-K1 cells were seeded in clear 96-well plates at 20,000 cells per 200 μL full growth medium and incubated for 24 hours at 37° C. The following day, in a sterile tube, 0.0309 uL/well PEI (Generon, MW 160,000) was diluted into 10 uL/well transfection medium (DMEM supplemented with 2 mM L-glutamine and Penicillin-Streptomycin). The diluted PEI was added to 100 ng/well DNA encoding the target protein (human LPAR1 (SEQ ID NO: 62) unless otherwise stated), before vortexing immediately and incubating the mixture for 10 minutes at room temperature. 200 μL/well full growth medium was added to the PEI-DNA mixture, then medium in wells was taken off and 200 ul full growth medium/PEI/DNA mixture was added in the wells of the adherent cell plate. The plate was incubated for 24 hours at 37° C. The next day, the medium was discarded and replaced with 200 μL full growth medium. The plate was incubated for 24 hours at 37° C. The following day, medium was removed from the wells and the cells incubated with primary antibody at varying concentrations for 75 minutes at 37° C. After washing and cell fixation with 4% PFA, the binding of the antibodies was detected using a goat anti-human Alexa Fluor 488 detection antibody (Invitrogen), incubated for 1 hour at room temperature. Fluorescence at 488 nm was measured using a BMG LABTECH ClarioStar plate reader and microscopy images were taken at 10× magnification.
as §1

[6] = system: renal fibrosis after UUO surgery; assay: Unilateral ureteral obstruction (UUO) efficacy model of renal fibrosis; type: in vivo, Hartley guinea pigs; conditions: Study 2
Description: Unilateral ureteral obstruction (UUO) is a well-characterized disease model for renal fibrosis. The UUO model encompasses key pathophysiological features of chronic kidney disease; tubular necrosis and inflammatory cell infiltration within a relatively short period.
Two unilateral ureteral obstruction (UUO) model efficacy studies were carried out in six-week old female Hartley guinea pigs. On Day 0, UUO surgery was performed. BMS-986020 was administered orally at a dose level of 30 mg/kg in a volume of 5 mL/kg twice daily at from Day −1 to 9. Isotype control and anti-LPAR1 antibody was intraperitoneally administered at a dose level of 6 mg/kg (low) or 20 mg/kg (high) in a volume of 10 mL/kg at Day −1, Day 0, Day 3 and Day 6. The viability, clinical signs, behaviour and individual body weight was monitored daily.
The animals were sacrificed at Day 10. The ligated left kidney and right kidney weight were measured at sacrifice.
Hydroxyproline is an amino acid, making up around 14% of collagen and acts as an important indicator of the severity of fibrosis. To quantify kidney hydroxyproline content, frozen posterior right section of left kidney samples were processed by an alkaline-acid hydrolysis method. AC buffer (2.2M acetic acid/0.48M citric acid) was added to the samples, followed by centrifugation to collect the supernatant. A standard curve of hydroxyproline was constructed with serial dilutions of trans-4-hydroxy-L-proline (Sigma-Aldrich, USA) starting at 16 μg/mL. The prepared samples and standards were mixed with chloramine T solution (Nacalai Tesque Inc., Japan) and incubated for 25 minutes at room temperature. The samples were then mixed with Ehrlich's solution and heated at 65° C. for 20 minutes to develop the colour. After samples were cooled on ice and centrifuged to remove precipitates, the optical density of each supernatant was measured at 560 nm. The concentrations of hydroxyproline were calculated from the hydroxyproline standard curve. Protein concentrations of kidney samples were determined using a BCA protein assay kit (Thermo Fisher Scientific, USA) and used to normalize the calculated hydroxyproline values. Kidney hydroxyproline contents were expressed as μg per mg protein.
The left kidney was fixed in Bouin's solution and embedded in paraffin. For PAS staining, sections were cut from paraffin blocks and stained with Schiff's reagent (FUJIFILM Wako pure chemical corporation, Japan) according to the manufacturer's instructions. To visualize collagen deposition, kidney sections were stained using picro-Sirius red solution (FUJIFILM Wako pure chemical corporation). For quantification of interstitial and medulla fibrosis area, bright field images in the corticomedullary region were captured using a digital camera (DFC295) at 200-fold magnification, and the positive areas in 5 fields/section were measured using ImageJ software (National Institute of Health, USA).

[7] = Dose range-finding toxicity study, liver histopathology; type: in vivo; conditions: cynomolgus
Description: A dose range-finding study was carried out to determine the potential toxicity of Antibody 17 when given by the intravenous (infusion) route to cynomolgus monkeys. The test item, Antibody 17, was administered to 8 animals via intravenous infusion (30 minutes) on Day 1 (Group 1) or on Days 1, 8 and 15 (Groups 2 to 4). Animals were split by sex, allocated into 4 groups and dosed with Antibody 17 at 10, 33 or 100 mg/kg/day.
A complete gross pathological examination, organ weight recording and microscopic evaluation were performed on the six animals that were given 3 doses of Antibody 17 (Groups 2 to 4) two days after the third dose.

[8] = IV infusion, 10, 33 or 100 mg/kg/day

T1 sequence (Q92633 whole entry): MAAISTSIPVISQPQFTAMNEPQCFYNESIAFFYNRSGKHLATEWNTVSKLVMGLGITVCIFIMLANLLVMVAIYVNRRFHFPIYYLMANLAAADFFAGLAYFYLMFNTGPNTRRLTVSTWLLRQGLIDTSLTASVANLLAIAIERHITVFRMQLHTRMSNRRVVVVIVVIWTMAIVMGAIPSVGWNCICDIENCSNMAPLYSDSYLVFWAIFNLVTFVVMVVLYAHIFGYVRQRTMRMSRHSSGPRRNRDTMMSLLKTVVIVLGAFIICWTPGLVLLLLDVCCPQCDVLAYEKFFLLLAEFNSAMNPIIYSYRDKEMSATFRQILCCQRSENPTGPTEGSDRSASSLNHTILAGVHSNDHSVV

| Molecule | LPAR1 fixed cell staining (LPAR1 [1]) | mode of inhibition (LPAR1 [2]) | inhibition with LPA present compared to the system where LPA is absent (LPAR1 [2]; even at high concentrations) | Irrelevant GPCR cell staining (Irrelevant GPCR) | binding affinity for LPAR1 (LPAR1 [3]) | mean Cmax [4] [µg/mL] | LPAR1 live cell staining (LPAR1 [5]) | histological picrosirius staining [6] | kidney hydroxyproline ([6]; BMS-986020 30 mg/kg oral vs vehicle, antibody 20 mg/kg (high) i.p. vs isotype antibody) | histopathology findings ([7]; 3 doses (Days 1, 8 and 15), two days after the third dose) | adverse effects throughout the study [7, 8] | tolerability at the injection sites [7, 8] | unscheduled deaths [7, 8] |
| --- | --- | --- | --- | --- | --- | --- | --- | --- | --- | --- | --- | --- | --- |
| B1 | LPAR1-Significant fixed and live cell staining | acting allosterically | does not deliver equivalent inhibition | Irrelevant GPCR-No significant cell staining | minimal effect on affinity | 217.5 | LPAR1-Significant fixed and live cell staining | – | – | – | – | – | – |
| B2 | – | – | – | – | – | 143.8 | – | No observable difference | significant reduction in hydroxyproline | no adverse findings | No adverse effects | well tolerated | no unscheduled deaths |
